Experimental data as given in patent US20220356246A1 (NANJING IMMUNOPHAGE BIOTECH, published 2022).

B1: anti-ROR1 antibody clone C3 (antibody, V domains shown)
VH: QVQLQESGPGLVKPSETLSLTCTVSGGSISSYYWSWIRQLPGKGLEWIGYMHYSGSTSYNPSLKGRLTISVDTSTNQFSLKLGSVTAADTAVYYCARYYYHDSSGYYSYFDYWGQGTLVTVSS
VL: EIVLTQSPGTLSLSPGERATLSCRASQSVSSYLAWYQQKAGQAPRLLIYDASNRASGIPARFSGSGSGTDFTLTISSLEPEDFAVYYCQQRSNWPPTFGGGTKVEIK
notes: also called anti-ROR1 (clone C3)
B2: anti-ROR1 antibody clone G3 (antibody, V domains shown)
VH: QVQLQQWGAGLLKPSETLSLTCAVYGGSFSGYYWSWIRQPPGKGLEWIGEINHSGSTSYNPSLKSRVTISVDTSKNQFSLKLSSVTAADTAVYYCARGHSSGWYRRYFDLWGRGTLVTVSS
VL: EIVLTQSPATLSLSPGERATLSCRASQSVSSYLAWYQQKPGQAPRLLIYDASNRATGIPAKFSGSGSGTDFTLTISSLEPEDFAVYYCQQRSNWPPTFGGGTKVEIK
B3: anti-ROR1 antibody clone G6 (antibody, V domains shown)
VH: EVQLVESGGGVVQPGGSLRLSCAASGFTFDDYAMHWVRQAPGKGLEWVSLISGDGGSTYYADSVKGRFTISRDNAKNSLYLQMNSLRAEDTAVYYCARDNWNDVYYYYGMDVWGQGTTVTVSS
VL: DIQLTQSPSSLSASIGDTVTISCQASRDISDYLNWYQHKPGKAPKLLIYDASNLATGVPSRFSGSGSGTDFTLTIKSLQPEDVATYFCQQDDLLPLTFGGGTKVDIK

Experiments:
[1] = target: T1, human ROR1 expressed on CHO-K1 cells (human, UniProt Q01973 30-937); assay: flow cytometry on CHO-K1-ROR1 cells, PE anti-human IgG-Fc
T1 construct: whole, on cells; also called CHO-K1-ROR1
Procedure: CHO-K1 cell line was transduced with lentivector carrying human ROR1. CHO-K1-ROR1 cells were resuspended in FACS buffer and Fc receptors were blocked prior to incubation with purified ROR1 mAbs. 5×10⁵ cells in 100 μL FACS buffer were aliquoted to separate tubes and the purified mAb was added. Antibody concentration is from about 30 μg/mL to about 0.000508 μg/mL. Cells were incubated at 4 degrees for 1 hour, then washed twice with excess FACS buffer. Cells were resuspended in 100 μL FACS buffer and 0.5 μg of anti-human IgG-Fc (PE) secondary antibody (ab98596) was added to samples, incubated for 30 minutes and washed twice with excess FACS buffer.

Human ROR1-ECD = target: T2, Human ROR1-ECD (human, UniProt Q01973 30-406); assay: BLI (Fortebio Octet RED96), mAb on AHC biosensor, human ROR1-ECD as analyte
T2 construct: extracellular domain; Analyte in the Fortebio Octet assay; also called ROR1-derived extracellular domain fragment
Procedure: Human ROR1-ECD was diluted in KB buffer (0.1% BSA, 0.05% Tween 20, 1×PBS, pH 7.4) to various concentrations (from about 500 nM to about 62.5 nM), and the mAb was also diluted in KB buffer to 10 μg/mL. The mAb was loading to anti-hIgG Fc Capture (AHC) Biosensors (PALL, Fortebio), and the diluted Human ROR1-ECD was associated with Mab, then dissociated in KB buffer. Association (k-on) and dissociation (k-off) rate constants were calculated based on a 1:1 Langmuir binding model using Fortebio Date Analysis 7.1 software (PALL, Fortebio).

T2 sequence (Q01973 30-406): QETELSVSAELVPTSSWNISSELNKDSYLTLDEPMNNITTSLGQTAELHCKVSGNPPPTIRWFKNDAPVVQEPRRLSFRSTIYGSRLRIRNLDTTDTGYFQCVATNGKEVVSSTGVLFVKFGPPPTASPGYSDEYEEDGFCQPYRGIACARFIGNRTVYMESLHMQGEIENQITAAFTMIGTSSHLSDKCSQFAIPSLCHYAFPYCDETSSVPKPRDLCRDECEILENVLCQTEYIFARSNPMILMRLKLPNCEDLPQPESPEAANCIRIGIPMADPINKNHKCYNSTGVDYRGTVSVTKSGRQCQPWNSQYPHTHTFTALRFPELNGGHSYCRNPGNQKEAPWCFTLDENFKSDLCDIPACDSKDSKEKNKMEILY
T1 sequence (Q01973 30-937): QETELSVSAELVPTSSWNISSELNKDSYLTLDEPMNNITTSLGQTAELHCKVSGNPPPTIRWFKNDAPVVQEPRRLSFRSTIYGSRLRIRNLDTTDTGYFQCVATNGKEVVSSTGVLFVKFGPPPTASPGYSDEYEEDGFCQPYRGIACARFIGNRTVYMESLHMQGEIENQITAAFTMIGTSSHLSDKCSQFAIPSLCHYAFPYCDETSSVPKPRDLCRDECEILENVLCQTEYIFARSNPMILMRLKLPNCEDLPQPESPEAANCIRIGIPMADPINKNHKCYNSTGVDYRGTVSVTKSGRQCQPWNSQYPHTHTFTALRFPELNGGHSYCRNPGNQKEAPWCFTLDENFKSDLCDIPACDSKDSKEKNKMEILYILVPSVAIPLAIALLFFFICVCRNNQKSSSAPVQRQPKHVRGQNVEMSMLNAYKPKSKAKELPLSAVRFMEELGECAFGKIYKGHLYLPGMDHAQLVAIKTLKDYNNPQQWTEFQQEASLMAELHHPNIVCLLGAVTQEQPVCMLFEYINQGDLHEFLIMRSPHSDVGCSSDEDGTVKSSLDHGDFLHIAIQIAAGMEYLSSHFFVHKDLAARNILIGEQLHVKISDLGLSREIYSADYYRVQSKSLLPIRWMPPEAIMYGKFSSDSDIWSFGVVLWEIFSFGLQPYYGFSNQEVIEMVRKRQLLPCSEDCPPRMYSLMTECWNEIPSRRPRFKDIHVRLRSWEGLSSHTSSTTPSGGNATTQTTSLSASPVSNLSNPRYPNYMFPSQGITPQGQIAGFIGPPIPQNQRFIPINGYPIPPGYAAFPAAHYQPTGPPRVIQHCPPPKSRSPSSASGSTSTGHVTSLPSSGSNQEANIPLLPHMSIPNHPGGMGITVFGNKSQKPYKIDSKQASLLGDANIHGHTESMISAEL

Binder | binding result [1] | binding result (Human ROR1-ECD)
B1 | binds | binds
B2 | binds | binds
B3 | binds | binds
